Values quoted from earlier work, collected in article PMC6473736.

Target: Nterm (UniProt position 2, ----MVHLTPE)
Settings: not stated (haem ligation state not given)

Substance: Human haemoglobin (adult Hb, alpha2beta2) (Homo sapiens)
- pKa: approximately 7.8 (α-chain) and 6.8 (β-chain)
